Laboratory results: PMC6331642

B1: Atox1 copper chaperone (protein)
chain: MPKHEFSVDMTCGGCAEAVSRVLNKLGGVKYDIDLPNKKVCIESEHSMDTLLATLKKTGKTVSYLGLE
B2: WLN4, the fourth metal-binding domain of Wilson's disease protein (ATP7B) (protein)
chain: TCSTTLIAIAGMTCASCVHSIEGMISQLEGVQQISVSLAEGTATVLYNPSVISPEELRAAIEDMGFEASVVS

Experiments:
[1] = target: O00244; assay: SEC-MALS; apo-Atox1 after reaction with TM, with 4.5 mM reducing agents
[2] = target: O00244; assay: SEC-MALS; Cu-Atox1 after reaction with TM, with 4.5 mM reducing agents
[3] = target: P35670; assay: SEC-MALS; Cu-WLN4 after incubation with TM; Superdex 75 10/300 GL, 50 mM MES pH 6.0, 150 mM NaCl, room temperature
[4] = target: P35670; assay: SEC-MALS; apo-WLN4 after incubation with TM; Superdex 75 10/300 GL, 50 mM MES pH 6.0, 150 mM NaCl, room temperature

| Protein | N with TM [1] | N with TM [2] | N with TM [3] | N with TM [4] |
| --- | --- | --- | --- | --- |
| B1 | both apo-Atox1 and Cu-Atox1 generated dimeric adducts following reaction with TM | both apo-Atox1 and Cu-Atox1 generated dimeric adducts following reaction with TM | – | – |
| B2 | – | – | 2 | 2 |
